For experiment [1], the target named is T1, cynomolgus monkey TG2 (cynomolgus monkey, UniProt A0A2K5VXI8 2-687).
T1 chain: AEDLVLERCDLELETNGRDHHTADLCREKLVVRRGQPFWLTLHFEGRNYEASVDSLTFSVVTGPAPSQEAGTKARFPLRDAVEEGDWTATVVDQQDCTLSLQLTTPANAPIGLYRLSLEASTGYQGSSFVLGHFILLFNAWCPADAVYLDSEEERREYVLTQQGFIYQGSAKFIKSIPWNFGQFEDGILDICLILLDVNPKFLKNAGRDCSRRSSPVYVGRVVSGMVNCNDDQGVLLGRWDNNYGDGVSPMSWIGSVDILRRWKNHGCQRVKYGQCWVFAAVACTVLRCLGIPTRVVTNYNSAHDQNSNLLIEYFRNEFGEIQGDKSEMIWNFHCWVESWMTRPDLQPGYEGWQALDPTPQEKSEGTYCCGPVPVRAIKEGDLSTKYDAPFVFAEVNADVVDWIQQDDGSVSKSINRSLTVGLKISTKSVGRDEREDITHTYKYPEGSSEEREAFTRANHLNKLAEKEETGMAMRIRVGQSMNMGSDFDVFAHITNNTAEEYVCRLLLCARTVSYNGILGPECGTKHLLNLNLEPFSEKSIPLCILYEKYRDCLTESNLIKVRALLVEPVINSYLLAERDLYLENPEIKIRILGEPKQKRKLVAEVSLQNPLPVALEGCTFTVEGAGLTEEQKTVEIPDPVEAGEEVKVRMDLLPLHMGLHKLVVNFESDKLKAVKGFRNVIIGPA
The experiment is described as follows: ELISA. (In general: An ELISA detects its analyte on a solid surface through an enzyme-linked reagent.)

Experiment [2] deals with T2, human transglutaminase type 2 (TG2) (UniProt P21980 1-687).
T2 chain: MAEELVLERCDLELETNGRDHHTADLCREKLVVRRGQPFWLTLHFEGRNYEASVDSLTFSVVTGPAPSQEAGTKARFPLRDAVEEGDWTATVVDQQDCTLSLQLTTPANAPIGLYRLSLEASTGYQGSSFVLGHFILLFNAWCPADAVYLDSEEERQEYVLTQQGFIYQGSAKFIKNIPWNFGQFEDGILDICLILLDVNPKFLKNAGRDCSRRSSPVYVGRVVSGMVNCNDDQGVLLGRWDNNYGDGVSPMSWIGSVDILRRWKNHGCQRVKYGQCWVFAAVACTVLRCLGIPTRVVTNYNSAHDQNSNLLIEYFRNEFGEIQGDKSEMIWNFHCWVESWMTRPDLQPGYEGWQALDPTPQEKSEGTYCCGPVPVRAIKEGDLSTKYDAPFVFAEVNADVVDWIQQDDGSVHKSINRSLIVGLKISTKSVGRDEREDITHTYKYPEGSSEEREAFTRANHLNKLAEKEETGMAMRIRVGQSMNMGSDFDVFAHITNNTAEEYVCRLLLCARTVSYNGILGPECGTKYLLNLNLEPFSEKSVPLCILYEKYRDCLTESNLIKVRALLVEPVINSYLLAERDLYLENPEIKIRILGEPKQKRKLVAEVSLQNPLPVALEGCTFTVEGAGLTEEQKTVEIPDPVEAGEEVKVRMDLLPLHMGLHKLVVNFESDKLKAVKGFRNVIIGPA
The experiment is described as follows: ELISA.

Experiment [3] deals with T2, human transglutaminase type 2 (TG2). Put plainly: enzyme inhibition.
The target is the same in experiment [4]. The experiment is described as follows: enzyme inhibition.
The target is the same in experiment [5]. Put plainly: enzyme inhibition.
The target is the same in experiment [6]. The experiment is described as follows: enzyme inhibition.
In experiment [7] the target is T1, cynomolgus monkey TG2. Put plainly: enzyme inhibition.
Experiment [8] concerns the target T2, human transglutaminase type 2 (TG2). Put plainly: ELISA.
Experiment [9] addresses T1, cynomolgus monkey TG2. The experiment is described as follows: ELISA.

Like-named read-outs stand apart in the source and are kept apart here.

B1: cAB003 chimeric anti-TG2 antibody (murine AB1 variable regions, human IgG1 and human kappa) (antibody, V domains shown)
VH: EVQLVESGGGLVKPGGSLKLSCAASGFTLSSSAMSWVRQTPDRRLEWVATISVGGGKTYYPDSVKGRFTISRDNAKNTLYLQMNSLRSEDTAMYYCAKLISLYWGQGTTLTVSS
VL: DIKMTQSPSSMYASLGERVTITCKASQDINSYLTWFQQKPGKSPKTLIYRTNRLFDGVPSRFSGSGSGQDFFLTISSLEYEDMGIYYCLQYDDFPYTFGGGTKLEIK
For B1, the concentration giving a half-maximal response (EC50) in experiment [1] came to 0.0568 nM; in experiment [2], 0.0614 nM. In addition, in experiment [3], the IC50 amounted to 1.17 nM.

B2: DC1 murine monoclonal anti-TG2 antibody (antibody, V domains shown)
VH: EVQLVESGGGLVKPGGSLKLSCAASGFTLSTHAMSWVRQTPEKRLEWVATISSGGRSTYYPDSVKGRFTISRDNVKNTLYLQLSSLRSEDTAVYFCARLISTYWGQGTTLTVSS
VL: DITMTQSPSSIYASLGERVTITCKASQDINSYLTWFQQKPGKSPKILIYLVNRLVDGVPSRFSGSGSGQDYALTISSLEYEDMGIYYCLQYDDFPYTFGGGTKLEIK
In turn, B2 registered a concentration giving a half-maximal response (EC50) in [4] of 0.571 nM.

B3: DH2 murine monoclonal anti-TG2 antibody (antibody, V domains shown)
VH: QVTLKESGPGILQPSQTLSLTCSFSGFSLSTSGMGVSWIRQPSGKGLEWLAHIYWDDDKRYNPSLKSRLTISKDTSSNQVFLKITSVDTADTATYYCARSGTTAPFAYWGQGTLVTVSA
VL: QIVLTQSPAIMSASPGEKVTMTCSASSSVSYMYWYQQKPGSSPRLLIYDTSNLASGVPVRFSGSGSGTSYSLTISRMEAEDAATFYCQQWSSSPLTFGAGTKLELK
Consider B3, for which, in experiment [5], the EC50 is around 7 µM.

B4: DD9 murine monoclonal anti-TG2 antibody (antibody, V domains shown)
VH: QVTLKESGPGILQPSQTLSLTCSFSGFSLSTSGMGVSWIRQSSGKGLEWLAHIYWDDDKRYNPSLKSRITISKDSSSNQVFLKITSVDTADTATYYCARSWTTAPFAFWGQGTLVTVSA
VL: QIVLTQSPAIMSASPGEKVTMTCSASSSVDYMYWYQQKPGSSPRLLIYDTSNLASGVPVRFSGSGSGTSYSLTISRMGAEDAATYYCQQWNSSPLTFGAGTKLELK
As for B4, a half-maximal effect in [4] (EC50) was put at 564 nM.

B5: hBB001AA humanised BB7 antibody (BB7 RHA with BB7 RKA) (antibody, V domains shown)
VH: EVQLLESGGGLVQPGGSLRLSCAASGIIFSSSAMSWVRQAPGKGLEWVATISSGGRSTYYPDSVKGRFTVSRDSSKNTLYLQMNSLRAEDTAVYYCAKLISPYWGQGTLVTVSS
VL: DIKMTQSPSSLSASVGDRVTITCKASQDINSYLTWFQQKPGKAPKTLIYLTNRLMDGVPSRFSGSGSGQEFLLTISSLQPEDFATYYCLQYVDFPYTFGQGTKVEIK
B5: the IC50 turned out to be 5.99 nM in [6] and 8.51 nM in [7]. In addition, the EC50 was around 0.0474 nM in experiment [8] and 0.0561 nM in experiment [9].

B6: hBB001BB humanised BB7 antibody (BB7 RHB with BB7 RKB) (antibody, V domains shown)
VH: EVQLLESGGGLVQPGGSLRLSCAASGFTFSSSAMSWVRQAPGKGLEWVSTISSGGRSTYYPDSVKGRFTISRDNSKNTLYLQMNSLRAEDTAVYYCAKLISPYWGQGTLVTVSS
VL: DIQMTQSPSSLSASVGDRVTITCKASQDINSYLTWFQQKPGKAPKSLIYLTNRLMDGVPSRFSGSGSGTDFFLTISSLQPEDFATYYCLQYVDFPYTFGQGTKVEIK
The molecule B6 gave an IC50 in experiment [6] of 0.985 nM. The EC50 in [8] was 0.0627 nM; in experiment [9] it was 0.0738 nM.

By EC50 is commonly meant the concentration at which the effect is half-maximal. As usually defined, the IC50 is the concentration needed to halve the response being measured.

Values taken from patent publication US20180355060A1 (published 2018).
